B1: Hammerhead Ribozyme (parent)
chain: ACCGGAUGUGCUUUCCGGUCUGAUGAGUCCGUGAGGACGAAACAG

Our source for the self-cleavage values is the RNAGym collection of RNA variant scans (doi:10.7554/elife.80360).

The series covers variants of B1. The series can be described thus: self-cleavage, relative activity (ratio to wild type); higher = more cleavage; co-transcriptional.
In the case of U19C, the self-cleavage was determined as 0.737.
Turning to U19G, the self-cleavage was determined as 0.437.
Regarding U19C C20A, the self-cleavage was 0.329.
For U19C C20U, the self-cleavage was determined as 0.321.
For U19C C20G, the self-cleavage was 0.289.
To C20A G22C belongs 0.349; to C20A G22A, 0.287; to C20A G22U, 0.341.
To C20G C38U belongs 0.38.
To C20G C38A belongs 0.241; to C20G C38G, 0.239.
For C20G A42C, the self-cleavage was 0.307.
As for C20G A42U, the self-cleavage was determined as 0.313.
For C20G A42G the value was 0.324; for U19G G35C, 0.308; for U19G G35U, 0.397.
For U19G G35A the value was 0.282; for C20A G36U, 0.306.
For C20A G36C, the self-cleavage is 0.313.
Regarding C20A G36A, the self-cleavage came out at 0.33.
To U19G C43G belongs 0.321; to U19G C43A, 0.319; to U19G C43U, 0.336.
Turning to C20G A37G, the self-cleavage came to 0.3.
To C20G A37U belongs 0.272; to C20G A37C, 0.298.
For U19A G27C, the self-cleavage amounted to 0.401.
Take U19A G27A: the self-cleavage was 0.34.
As for U19A G27U, the self-cleavage turned out to be 0.26.
C20A G33A: the self-cleavage amounted to 0.651.
C20A G33U: the self-cleavage came out at 0.548.
For the variant C20A G33C, the self-cleavage was 0.555.
On to U19C G22C, for which the self-cleavage worked out at 0.323.
On to U19C G22A, for which the self-cleavage was found to be 0.282.
U19C G22U: the self-cleavage came out at 0.267.
With U19A C30U, the self-cleavage amounted to 0.369.
In the case of U19A C30A, the self-cleavage is 0.294.
With U19A C30G, the self-cleavage is 0.28.
To C20A C30U belongs 0.498; to C20A C30G, 0.353; to C20A C30A, 0.286.
For C20G C43U the value was 0.298; for C20G C43G, 0.432.
To C20G C43A belongs 0.353; to U19A U24C, 0.362; to U19A U24G, 0.327.
Consider U19A U24A, for which the self-cleavage is 0.465.
Consider U19G A42U, for which the self-cleavage worked out at 0.345.
For U19G A42C, the self-cleavage was 0.424.
To U19G A42G belongs 0.317; to C20G A23C, 0.271.
Regarding C20G A23U, the self-cleavage stood at 0.317.
Turning to C20G A23G, the self-cleavage was 0.386.
With U19C A23G, the self-cleavage came to 0.369.
Consider U19C A23C, for which the self-cleavage came to 0.299.
In the case of U19C A23U, the self-cleavage is 0.372.
For U19G G39C the value was 0.297.
As for U19G G39U, the self-cleavage is 0.305.
As for U19G G39A, the self-cleavage came to 0.378.
As to U19C G33C, the self-cleavage worked out at 0.38.
U19C G33A: the self-cleavage came out at 0.579.
As for U19C G33U, the self-cleavage came out at 0.792.
To U19A G36U belongs 0.302.
U19A G36A: the self-cleavage was 0.369.
For U19A G36C the value was 0.367; for C20A C38U, 0.385.
As for C20A C38G, the self-cleavage was 0.429.
Regarding C20A C38A, the self-cleavage was found to be 0.292.
U19G U32A: the self-cleavage was determined as 0.366.
As for U19G U32G, the self-cleavage stood at 0.371.
With U19G U32C, the self-cleavage worked out at 0.449.
For C20A C29A the value was 0.382; for C20A C29U, 0.357.
On to C20A C29G, for which the self-cleavage is 0.311.
As for U19C U21G, the self-cleavage is 0.221.
For U19C U21C, the self-cleavage stood at 0.251.
Take U19C U21A: the self-cleavage turned out to be 0.416.
For the variant U19G A40U, the self-cleavage is 0.323.
In the case of U19G A40C, the self-cleavage amounted to 0.294.
For U19G A40G the value was 0.384; for U19C U24G, 0.552.
In the case of U19C U24A, the self-cleavage turned out to be 0.776.
On to U19C U24C, for which the self-cleavage was found to be 0.682.
For U19A U28A, the self-cleavage was 0.368.
Consider U19A U28G, for which the self-cleavage was 0.374.
In the case of U19A U28C, the self-cleavage was 0.313.
As for C20A A37U, the self-cleavage was 0.353.
In the case of C20A A37C, the self-cleavage worked out at 0.417.
Take C20A A37G: the self-cleavage came to 0.441.
On to C20G A26U, for which the self-cleavage came to 0.29.
Consider C20G A26C, for which the self-cleavage turned out to be 0.404.
For C20G A26G the value was 0.302; for C20G G27C, 0.252; for C20G G27U, 0.265.
Turning to C20G G27A, the self-cleavage was determined as 0.381.
On to U19C G25A, for which the self-cleavage was 0.312.
In the case of U19C G25C, the self-cleavage was determined as 0.378.
To U19C G25U belongs 0.273; to U19C A42U, 0.212.
With U19C A42C, the self-cleavage came to 0.237.
With U19C A42G, the self-cleavage is 0.279.
For the variant C20A U28A, the self-cleavage worked out at 0.435.
To C20A U28G belongs 0.552; to C20A U28C, 0.487; to C20A A41G, 0.309.
In the case of C20A A41C, the self-cleavage is 0.388.
For the variant C20A A41U, the self-cleavage came to 0.335.
In the case of C20A U24G, the self-cleavage stood at 0.594.
As to C20A U24C, the self-cleavage worked out at 0.368.
Regarding C20A U24A, the self-cleavage was determined as 0.764.
Consider U19G G33C, for which the self-cleavage amounted to 0.426.
With U19G G33A, the self-cleavage turned out to be 0.551.
In the case of U19G G33U, the self-cleavage was found to be 0.411.
Turning to U19C A37G, the self-cleavage was 0.41.
Consider U19C A37U, for which the self-cleavage was found to be 0.437.
On to U19C A37C, for which the self-cleavage worked out at 0.668.
On to U19C C30A, for which the self-cleavage worked out at 0.416.
For U19C C30G, the self-cleavage came to 0.459.
To U19C C30U belongs 0.878; to U19C C43G, 0.393.
With U19C C43U, the self-cleavage is 0.376.
With U19C C43A, the self-cleavage was 0.284.
As for U19A U21C, the self-cleavage was found to be 0.248.
With U19A U21G, the self-cleavage is 0.314.
To U19A U21A belongs 0.292; to U19C A34G, 0.478.
As to U19C A34U, the self-cleavage is 0.339.
For U19C A34C the value was 0.411; for C20G A41C, 0.329.
To C20G A41U belongs 0.371; to C20G A41G, 0.332; to U19C G31U, 0.789.
Regarding U19C G31A, the self-cleavage was 0.967.
As for U19C G31C, the self-cleavage was 0.657.
For U19G A34G the value was 0.345; for U19G A34U, 0.289; for U19G A34C, 0.349.
With U19A C29G, the self-cleavage amounted to 0.295.
In the case of U19A C29U, the self-cleavage amounted to 0.376.
In the case of U19A C29A, the self-cleavage stood at 0.332.
In the case of U19C A40U, the self-cleavage was determined as 0.272.
In the case of U19C A40G, the self-cleavage is 0.332.
To U19C A40C belongs 0.305.
To U19C C29A belongs 0.374; to U19C C29U, 0.491; to U19C C29G, 0.434.
As to U19A G35U, the self-cleavage is 0.373.
Turning to U19A G35C, the self-cleavage turned out to be 0.422.
Turning to U19A G35A, the self-cleavage came to 0.317.
For C20G G31C the value was 0.321; for C20G G31A, 0.319; for U19A C20U, 0.303.
For U19G U28C the value was 0.352; for U19G U28A, 0.411; for U19G U28G, 0.355.
For the variant C20A A42G, the self-cleavage is 0.341.
For C20A A42U, the self-cleavage stood at 0.386.
Take C20A A42C: the self-cleavage turned out to be 0.335.
On to U19C G39U, for which the self-cleavage amounted to 0.271.
In the case of U19C G39C, the self-cleavage came to 0.251.
Consider U19C G39A, for which the self-cleavage was determined as 0.282.
Take C20G A34U: the self-cleavage is 0.383.
To C20G A34G belongs 0.245; to C20G A34C, 0.365; to U19C G35C, 0.492.
As for U19C G35U, the self-cleavage came to 0.465.
For U19C G35A the value was 0.64.
